The record followed here is publication PMC5650531.

This test deals with His6-CCCP-1 (C. elegans CCCP-1, full length) (C. elegans). Description: SEC-MALS.

As usually defined, the stoichiometry N is the number of molecules, sites or subunits per partner or assembly. “His6-CCCP-1 (C. elegans CCCP-1, full length) (natural protein)” gave a stoichiometry N of 2.
